Key:
[1] = target: T1, cynomolgus PD-1 expressed on cells (cynomolgus monkey, UniProt B0LAJ3 25-288); assay: flow cytometry, CHO-S Cyno-PD-1
T1 construct: also called CHO-S Cyno-PD-1; 293:cyPD1

[2] = target: T2, recombinant cynoPD-1 (construct not stated) (cynomolgus monkey, UniProt B0LAJ3 25-170); assay: ELISA
T2 construct: not shown: probably His as elsewhere

[3] = target: T3, recombinant hPD-1 (construct not stated) (human, UniProt Q15116 25-167, limits assumed); assay: ELISA
T3 construct: also called huPD-1; Human PD1
T3 sequence (Q15116 25-167 limits assumed): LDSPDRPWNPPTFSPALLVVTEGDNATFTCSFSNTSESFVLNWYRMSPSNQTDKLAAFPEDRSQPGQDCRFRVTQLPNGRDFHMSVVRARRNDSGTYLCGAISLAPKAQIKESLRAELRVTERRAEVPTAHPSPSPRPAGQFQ

[4] = target: T4, hPD-1 Avi-Tag Biotin (AcroBiosystems PD1-H82E4) (human, UniProt Q15116 25-167, biotin on Avi-Tag); assay: SPR, Ab captured, PD-1 analyte
T4 construct: bought; also called human PD-1
T4 sequence (Q15116 25-167 limits assumed): as above
Protocol: Anti-human Fc IgG (Jackson) was immobilized on amine reactive CM5 chips (GE Healthcare) using 1×HBS-EP+ running buffer (GE Healthcare). The test antibodies were captured at flow rate 10 μl/min with 30 s contact time. […] Regeneration was carried out with 10 mM Glycine-HCl, pH 1.5 at flow rate 10 μL/min. This protocol is to be used, unless stated otherwise, in determination of Kd wherever used to define the KD of antibodies specified herein, with adaptions where necessary with regard to the nature of the interaction partners. […]

[5] = target: T5, human PD-1 expressed on cells (human, UniProt Q15116 25-288); assay: flow cytometry, CHO-S hPD-1
T5 construct: whole, on cells; cell line named under assay; also called CHO-S hPD-1; Raji PD-1
T5 sequence (Q15116 25-288): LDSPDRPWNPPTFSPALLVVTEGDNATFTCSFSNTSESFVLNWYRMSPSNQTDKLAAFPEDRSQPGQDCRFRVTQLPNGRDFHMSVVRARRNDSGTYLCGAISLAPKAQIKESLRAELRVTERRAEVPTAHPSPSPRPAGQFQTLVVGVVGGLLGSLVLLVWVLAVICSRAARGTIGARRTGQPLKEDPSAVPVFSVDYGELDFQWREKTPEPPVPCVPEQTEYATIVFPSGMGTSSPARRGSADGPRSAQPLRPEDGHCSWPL

[6] = target: T6, cynoPD-1 His (AcroBiosystems PD1-C5223) (cynomolgus monkey, UniProt B0LAJ3 25-170); assay: SPR; second ka column, taken as cynoPD-1
T6 construct: also called cPD-1; cynomolgus PD-1 His-tagged
T6 sequence (B0LAJ3 entry or part of it limits assumed): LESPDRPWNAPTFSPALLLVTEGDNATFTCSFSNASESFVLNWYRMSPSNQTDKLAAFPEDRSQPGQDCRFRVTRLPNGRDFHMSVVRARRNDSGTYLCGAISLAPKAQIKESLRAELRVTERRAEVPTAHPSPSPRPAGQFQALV
Protocol: Anti-human Fc IgG (Jackson) was immobilized on amine reactive CM5 chips (GE Healthcare) using 1×HBS-EP+ running buffer (GE Healthcare). The test antibodies were captured at flow rate 10 μl/min with 30 s contact time. […] Regeneration was carried out with 10 mM Glycine-HCl, pH 1.5 at flow rate 10 μL/min. This protocol is to be used, unless stated otherwise, in determination of Kd wherever used to define the KD of antibodies specified herein, with adaptions where necessary with regard to the nature of the interaction partners.
Every position in the antibody VH and VL-CDRs was mutated by PCR using a mutagenic primer containing a degenerate codon NNS at a specific CDR position, introducing a combination of all 20 amino acids. The library of single mutants was screened by scFv capture ELISA using a redundancy factor of 4 (on 96-well plate er position). Clones displaying ≥2× ELISA signal compared to the wild-type scFv were sequenced, and clones with unique sequences were re-grown, re-screened by capture ELISA and ranked by dose-dependent ELISA on human and cyno antigens, and by FACS using human antigen expressing cells. Affinity improving mutations were used to design a combinatorial library using the Kunkel method. The library was screened by scFv capture ELISA using the redundancy factor of 4 (4× number of combinations). Clones displaying ≥2× ELISA signal compared to the wild-type scFv were sequenced, and clones with unique sequences were re-grown, re-screened by capture ELISA and ranked by dose-dependent ELISA on human and cyno antigens, and by FACS using human antigen expressing cells.

[7] = target: T5, human PD-1 expressed on cells; assay: cell-based or functional assay
[8] = target: T7, IL-2R CD122-CD132 on Jurkat-PD1+CD122+ cells (UniProt P14784 27-551; P31785 23-369); assay: cell-based or functional assay
T7 sequence (looked up) 1: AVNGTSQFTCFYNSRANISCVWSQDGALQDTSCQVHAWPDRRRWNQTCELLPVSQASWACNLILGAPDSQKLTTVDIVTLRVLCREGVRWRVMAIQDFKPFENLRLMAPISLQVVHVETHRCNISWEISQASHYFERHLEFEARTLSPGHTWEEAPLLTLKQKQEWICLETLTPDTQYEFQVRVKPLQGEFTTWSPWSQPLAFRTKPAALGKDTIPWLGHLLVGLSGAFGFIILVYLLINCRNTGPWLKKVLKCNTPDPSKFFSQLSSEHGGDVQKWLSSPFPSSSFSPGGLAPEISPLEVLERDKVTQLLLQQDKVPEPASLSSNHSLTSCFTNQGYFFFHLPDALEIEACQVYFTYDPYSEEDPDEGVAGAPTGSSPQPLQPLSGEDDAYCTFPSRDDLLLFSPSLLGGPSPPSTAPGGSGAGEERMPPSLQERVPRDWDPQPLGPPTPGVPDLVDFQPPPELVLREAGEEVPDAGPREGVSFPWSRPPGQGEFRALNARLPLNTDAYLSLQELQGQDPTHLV
T7 sequence (looked up) 2: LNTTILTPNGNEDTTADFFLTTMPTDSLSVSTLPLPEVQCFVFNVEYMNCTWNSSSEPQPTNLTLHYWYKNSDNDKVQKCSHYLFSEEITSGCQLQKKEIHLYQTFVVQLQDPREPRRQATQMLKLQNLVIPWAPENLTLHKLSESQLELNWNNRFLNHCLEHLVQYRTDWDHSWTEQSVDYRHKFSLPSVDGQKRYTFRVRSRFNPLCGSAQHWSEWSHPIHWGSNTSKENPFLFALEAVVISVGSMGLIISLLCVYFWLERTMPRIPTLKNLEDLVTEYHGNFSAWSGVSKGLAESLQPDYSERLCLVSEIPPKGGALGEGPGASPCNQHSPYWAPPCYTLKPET

T1 sequence (B0LAJ3 entry or part of it limits assumed): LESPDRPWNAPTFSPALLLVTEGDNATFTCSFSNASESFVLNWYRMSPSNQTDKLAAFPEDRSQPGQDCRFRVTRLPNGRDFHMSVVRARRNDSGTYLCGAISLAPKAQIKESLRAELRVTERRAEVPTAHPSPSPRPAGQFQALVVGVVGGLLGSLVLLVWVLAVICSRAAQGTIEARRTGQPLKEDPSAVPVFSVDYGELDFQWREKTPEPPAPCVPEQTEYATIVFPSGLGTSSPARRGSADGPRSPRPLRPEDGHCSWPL

B1: XVT458-z2-m1 (antibody, V domains shown)
VH: QVQLVQSGAEVKKPGASVKVSCKASGYTFTNFYIHWVRQAPGQGLEWMGSIYPNYGFTAYNQKFKDRVTMTVDTSTSTAYMELRSLRSDDTAVYYCARGYSYAMDYWGQGTTVTVSS
VL: DIQMTQSPSSVSASVGDRVTITCSASQGIWGDLNWYQQKPGKAPKLLIYHTSQLHSDVPSRFSGSGSGTDFTLTISSLQPEDFATYYCQGYSKDLLTFGGGTKLEIK
notes: IgG format; also called z2-XVT458-m1; z2_XVT458m1
B1 was tested, and the “Max MFI” value [1] was 70 MFI, the EC50 [2] was 0.087 nM and the “Max OD” value [2] was 3.58 OD. For the same binder, the EC50 [3] was 0.083 nM, the “Max OD” value [3] was 3.39 OD and the Kd [4] was 0.148 nM. The koff [4] was 3.28e-05 s⁻¹, the kon [4] was 222000 M⁻¹ s⁻¹ and the EC50 [5] was 1.5 nM. For the same binder, the “Max MFI” value [5] was 41000 MFI and the kon [6] was 185000 M⁻¹ s⁻¹.

B2: XVT458-z2-m3 (antibody, V domains shown)
VH: QVQLVQSGAEVKKPGASVKVSCKASGYTFTNFYIHWVRQAPGQGLEWMGRIYPNYGITAYNQKFKDRVTMTVDTSTSTAYMELRSLRSDDTAVYYCARGYSYAMDYWGQGTTVTVSS
VL: DIQMTQSPSSVSASVGDRVTITCSASQGISGDLNWYQQKPGKAPKLLIYHTSQRHSDVPSRFSGSGSGTDFTLTISSLQPEDFATYYCQGYSKDLLTFGGGTKLEIK
notes: IgG format; also called z2_XVT458m3
For B2, the “Max MFI” value [1] was 124 MFI, the EC50 [2] was 0.094 nM and the “Max OD” value [2] was 3.54 OD. The EC50 [3] was 0.089 nM, the “Max OD” value [3] was 3.37 OD and the Kd [4] was 0.417 nM. For the same binder, the koff [4] was 6.57e-05 s⁻¹, the kon [4] was 158000 M⁻¹ s⁻¹ and the EC50 [5] was 1.34 nM. For the same binder, the “Max MFI” value [5] was 41100 MFI and the kon [6] was 138000 M⁻¹ s⁻¹.

B3: XVT458-z2-m2 (antibody, V domains shown)
VH: QVQLVQSGAEVKKPGASVKVSCKASGYTFTNFYIHWVRQAPGQGLEWMGRIYPNYGFTAYNQKFKDRVTMTVDTSTSTAYMELRSLRSDDTAVYYCARGYSYAMDYWGQGTTVTVSS
VL: DIQMTQSPSSVSASVGDRVTITCSASQGIYGDLNWYQQKPGKAPKLLIYHTSSLHSGVPSRFSGSGSGTDFTLTISSLQPEDFATYYCQAYSKDLLTFGGGTKLEIK
notes: IgG format; also called z2_XVT458m2
For B3, the “Max MFI” value [1] was 367 MFI, the EC50 [2] was 0.086 nM and the “Max OD” value [2] was 3.56 OD. For the same binder, the EC50 [3] was 0.076 nM, the “Max OD” value [3] was 3.34 OD and the Kd [4] was 1.24 nM. For the same binder, the koff [4] was 0.00019 s⁻¹, the kon [4] was 153000 M⁻¹ s⁻¹ and the EC50 [5] was 1.15 nM. The “Max MFI” value [5] was 42800 MFI and the kon [6] was 127000 M⁻¹ s⁻¹.

B4: NZA596 (bispecific antibody, human IgG1, kappa, lambda, L234A L235A)
heavy 1: EVQLLESGGGLVQPGGSLRLSCAASGFTFSINAMTWVRQAPGKGLEWVSTISGSGFSTYYADSLKGRFTISRDNSKNTLYLQMNSLRAEDTAVYYCAKEVYGDYWGQGTLVTVSSASTKGPSVFPLAPSSKSTSGGTAALGCLVKDYFPEPVTVSWNSGALTSGVHTFPAVLQSSGLYSLSSVVTVPSSSLGTQTYICNVNHKPSNTKVDKRVEPKSCDKTHTCPPCPAPEAAGGPSVFLFPPKPKDTLMISRTPEVTCVVVDVSHEDPEVKFNWYVDGVEVHNAKTKPREEQYNSTYRVVSVLTVLHQDWLNGKEYKCKVSNKALAAPIEKTISKAKGQPREPQVCTLPPSREEMTKNQVSLSCAVKGFYPSDIAVEWESNGQPENNYKTTPPVLDSDGSFFLVSKLTVDKSRWQQGNVFSCSVMHEALHNHYTQKSLSLSPGK
light 1: not shown
heavy 2: EVQLVQSGAEVKKPGESLKISCKGSGYAFTNYLIEWVRQMPGKGLEWMGVINPGSGGTNYNEKFKGQVTISADKSISTAYLQWSSLKASDTAMYYCARWRGEGYYAYFDVWGQGTTVTVSSASTKGPSVFPLAPSSKSTSGGTAALGCLVKDYFPEPVTVSWNSGALTSGVHTFPAVLQSSGLYSLSSVVTVPSSSLGTQTYICNVNHKPSNTKVDKRVEPKSCDKTHTCPPCPAPEAAGGPSVFLFPPKPKDTLMISRTPEVTCVVVDVSHEDPEVKFNWYVDGVEVHNAKTKPREEQYNSTYRVVSVLTVLHQDWLNGKEYKCKVSNKALAAPIEKTISKAKGQPREPQVYTLPPCREEMTKNQVSLWCLVKGFYPSDIAVEWESNGQPENNYKTTPPVLDSDGSFFLYSKLTVDKSRWQQGNVFSCSVMHEALHNHYTQKSLSLSPGK
light 2: not shown
B4 was tested, and the “EC50 of NZA596, % pSTAT5+ Jurkat PD-1+CD122+ cells, pre-incubation with Medium” value [7] was 0.85 nM, the “EC50 of NZA596, pre-incubation with 21A08Ap1” value [7] was 15.6 nM and the “EC50 of NZA596, pre-incubation with Cemiplimab” value [7] was 1.67 nM. For the same binder, the “EC50 of NZA596, pre-incubation with Cetrelimab” value [7] was 0.76 nM, the “EC50 of NZA596, pre-incubation with Dostarlimab (m102)” value [7] was 0.96 nM and the “EC50 of NZA596, pre-incubation with Ezabenlimab” value [7] was 1.71 nM. For the same binder, the “EC50 of NZA596, pre-incubation with Nivolumab” value [7] was 1.1 nM, the “EC50 of NZA596, pre-incubation with Pembrolizumab” value [7] was 1.02 nM and the “EC50 of NZA596, pre-incubation with Tislelizumab” value [7] was 1.47 nM. The “EC50 of NZA596, pre-incubation with Toripalimab” value [7] was 0.65 nM, the “EC50 of NZA596, pre-incubation with Zeluvalimab” value [7] was 0.88 nM and the “fold reduction in NZA596 Potency, pre-incubation with 21A08Ap1” value [7] was 18.2 fold. For the same binder, the “fold reduction in NZA596 Potency, pre-incubation with Cemiplimab” value [7] was 1.95 fold, the “fold reduction in NZA596 Potency, pre-incubation with Cetrelimab” value [7] was 0.89 fold and the “fold reduction in NZA596 Potency, pre-incubation with Dostarlimab (m102)” value [7] was 1.12 fold. The “fold reduction in NZA596 Potency, pre-incubation with Ezabenlimab” value [7] was 2 fold, the “fold reduction in NZA596 Potency, pre-incubation with Nivolumab” value [7] was 1.28 fold and the “fold reduction in NZA596 Potency, pre-incubation with Pembrolizumab” value [7] was 1.2 fold. For the same binder, the “fold reduction in NZA596 Potency, pre-incubation with Tislelizumab” value [7] was 1.72 fold, the “fold reduction in NZA596 Potency, pre-incubation with Toripalimab” value [7] was 0.77 fold and the “fold reduction in NZA596 Potency, pre-incubation with Zeluvalimab” value [7] was 1.03 fold. The “EC50 (read off the curve), % pSTAT5+ of CFSE+ cells pre-blocked with Nivolumab [panel CFSE+ cells]” value [8] was roughly 0.9 nM, the “EC50 (read off the curve), % pSTAT5+ of CFSE+ cells pre-blocked with Pembrolizumab [panel CFSE+ cells]” value [8] was roughly 0.9 nM and the “EC50 (read off the curve), % pSTAT5+ of CFSE+ cells; No blocking [panel CFSE+ cells]” value [8] was roughly 0.6 nM. The “EC50 (read off the curve), % pSTAT5+ of CTV+ cells; No blocking [panel CTV+ cells]” value [8] was roughly 0.5 nM, the “EC50 (read off the curve), % pSTAT5+ of CTV+ cells; mixed with CFSE+ cells pre-blocked with Nivolumab [panel CTV+ cells]” value [8] was roughly 0.6 nM and the “EC50 (read off the curve), % pSTAT5+ of CTV+ cells; mixed with CFSE+ cells pre-blocked with Parental mAb [panel CTV+ cells]” value [8] was roughly 0.6 nM. The “EC50 (read off the curve), % pSTAT5+ of CTV+ cells; mixed with CFSE+ cells pre-blocked with Pembrolizumab [panel CTV+ cells]” value [8] was roughly 0.6 nM.

From patent US20260207767A1 (ANAVEON, published 2026)
